For experiment [1], the target named is human CD47 (human) (UniProt Q08722). As to the kind of experiment: flow cytometry on human red blood cells, antibody at 15 µg/mL (negative control).
The target is the same in experiment [2]. As to the kind of experiment: flow cytometry on human red blood cells, antibody at 150 µg/mL (negative control).

human CD47 (human), sequence (Q08722 19-323): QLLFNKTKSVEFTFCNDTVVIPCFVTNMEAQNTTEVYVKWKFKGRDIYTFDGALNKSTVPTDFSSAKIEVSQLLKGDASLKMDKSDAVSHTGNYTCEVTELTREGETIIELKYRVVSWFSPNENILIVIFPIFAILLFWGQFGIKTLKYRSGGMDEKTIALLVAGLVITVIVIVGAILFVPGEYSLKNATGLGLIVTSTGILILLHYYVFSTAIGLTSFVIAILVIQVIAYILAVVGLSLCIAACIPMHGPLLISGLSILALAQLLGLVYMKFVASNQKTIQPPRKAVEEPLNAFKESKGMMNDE

Turning to “Human IgG1 isotype negative control (antibody)”, the figures for the MFI with human CD47 (human) [1] and with human CD47 (human) [2] were 303 MFI and 901 MFI, respectively.

(Values after patent US20250257128A1.)
